Test results: the Immune Epitope Database (IEDB)

What was measured:
Test in all cases: IEDB peptide-MHC binding, purified MHC/competitive/radioactivity; filed as Kd, often an IC50 or EC50 that approximates it; ≥ and ≤ were set here for values at or beyond the usual limits of such assays
[1] = target: HLA-A*03:01
[2] = target: HLA-A*11:01
[3] = target: HLA-A*31:01
[4] = target: HLA-A*33:01
[5] = target: HLA-A*68:01
[6] = target: HLA-A*02:03; conditions: source organism: Dengue virus 3 Martinique/1243/1999
[7] = target: HLA-A*02:06; conditions: source organism: Dengue virus 1 Singapore/S275/1990
[8] = source organism: Lymphocytic choriomeningitis virus (strain WE)
[9] = source organism: Mammarenavirus machupoense
[10] = source organism: Vaccinia virus WR
[11] = source organism: SARS coronavirus Tor2
[12] = source organism: Lassa virus Josiah
[13] = source organism: Mammarenavirus lassaense

Sequence	Kd [1, 10]	Kd [2, 10]	Kd [3, 10]	Kd [4, 10]	Kd [5, 10]	other results
SRILFAQEK	–	–	–	–	–	Kd [1, 8]: 15700 nM; Kd [2, 8]: 773 nM; Kd [3, 8]: ≥ 38700 nM; Kd [4, 8]: ≥ 77700 nM; Kd [5, 8]: 7330 nM
SSFDYCGMDH	–	–	–	–	–	Kd [1, 9]: 13800 nM; Kd [2, 9]: 6580 nM; Kd [3, 9]: 10600 nM; Kd [4, 9]: ≥ 48900 nM; Kd [5, 9]: 3400 nM
SSKGNCAIK	6770 nM	2150 nM	2150 nM	17700 nM	3480 nM	–
SSNKDPITVY	≥ 70100 nM	1880 nM	≥ 50900 nM	≥ 70000 nM	≥ 42800 nM	–
SSPPIPMSR	7270 nM	406 nM	10400 nM	15500 nM	764 nM	–
SSSIDVDKR	≥ 78000 nM	4750 nM	8950 nM	≥ 35000 nM	146 nM	–
STCSAVTDR	≥ 31000 nM	31.2 nM	119 nM	1390 nM	55.1 nM	–
STDNAVYQCR	5720 nM	35.4 nM	427 nM	2890 nM	81.3 nM	–
STSLSEEFFH	–	–	–	–	–	Kd [1, 9]: ≥ 43100 nM; Kd [2, 9]: 4310 nM; Kd [3, 9]: 14700 nM; Kd [4, 9]: ≥ 64800 nM; Kd [5, 9]: 13200 nM
SVLCVKKFYK	1.14 nM	0.302 nM	0.785 nM	12.2 nM	1.01 nM	–
SVNEYHMLK	6.1 nM	2.23 nM	6.92 nM	85.7 nM	2.24 nM	–
SVYAWERKK	–	–	–	–	–	Kd [1, 11]: 134 nM; Kd [2, 11]: 230 nM; Kd [3, 11]: 1940 nM; Kd [4, 11]: ≥ 38700 nM; Kd [5, 11]: 5320 nM
TFKIDAVRYY	≥ 70100 nM	12100 nM	≥ 20700 nM	≥ 43400 nM	1430 nM	–
THLGPQFCK	–	–	–	–	–	Kd [1, 12]: 880 nM; Kd [2, 12]: 284 nM; Kd [3, 12]: 15900 nM; Kd [4, 12]: ≥ 77700 nM; Kd [5, 12]: 338 nM
TISKDNLER	2620 nM	170 nM	175 nM	490 nM	18.1 nM	–
TLGSFTWFPH	–	–	–	–	–	Kd [1, 13]: 428 nM; Kd [2, 13]: 4990 nM; Kd [3, 13]: 782 nM; Kd [4, 13]: 13400 nM; Kd [5, 13]: ≥ 25700 nM
TLIMIGSNA	–	–	–	–	–	Kd [6]: 32 nM

Sequence	Kd [1, 10]	Kd [2, 10]	Kd [3, 10]	Kd [4, 10]	Kd [5, 10]	other results
TMLDVDLRPA	–	–	–	–	–	Kd [7]: 16.9 nM
TVWEVQGYK	–	–	–	–	–	Kd [1, 11]: 2.91 nM; Kd [2, 11]: 0.757 nM; Kd [3, 11]: 47.7 nM; Kd [4, 11]: 129 nM; Kd [5, 11]: 0.913 nM
VAALDGTFQR	≥ 34100 nM	681 nM	124 nM	675 nM	40.1 nM	–
VFTDISMSLY	8240 nM	2290 nM	11600 nM	6760 nM	2300 nM	–
VIGLSGDSER	≥ 63700 nM	15900 nM	8890 nM	1180 nM	182 nM	–
VSLKKTNDK	193 nM	32.1 nM	8770 nM	≥ 54800 nM	19400 nM	–
VSLLRSTSQK	–	–	–	–	–	Kd [1, 11]: 11.6 nM; Kd [2, 11]: 172 nM; Kd [3, 11]: 175 nM; Kd [4, 11]: 2540 nM; Kd [5, 11]: 6330 nM
VSMTYLYNKY	15400 nM	96.5 nM	≥ 28900 nM	≥ 70000 nM	≥ 70200 nM	–
VTLADAGFMK	–	–	–	–	–	Kd [1, 11]: 33 nM; Kd [2, 11]: 3.92 nM; Kd [3, 11]: 1200 nM; Kd [4, 11]: 11700 nM; Kd [5, 11]: 135 nM
VVDTFISYNR	2540 nM	343 nM	25.2 nM	101 nM	80.5 nM	–
WIQYDKHCY	5820 nM	39.5 nM	5660 nM	≥ 60400 nM	2980 nM	–
WVSLKKTNDK	2090 nM	608 nM	≥ 32700 nM	≥ 70000 nM	≥ 45500 nM	–
YCSTNHLSK	–	–	–	–	–	Kd [1, 9]: 19200 nM; Kd [2, 9]: 14900 nM; Kd [3, 9]: ≥ 77900 nM; Kd [4, 9]: ≥ 77700 nM; Kd [5, 9]: ≥ 23100 nM
YITIQDRPR	≥ 78000 nM	≥ 44800 nM	138 nM	187 nM	26.2 nM	–
YIVHSYLKNY	≥ 70100 nM	≥ 69800 nM	≥ 70000 nM	≥ 70000 nM	≥ 70200 nM	–
YLIHDNIMY	10600 nM	14900 nM	≥ 77900 nM	≥ 77700 nM	≥ 26900 nM	–
